Measured values reported in article PMC7744796, “Prolyl isomerization controls activation kinetics of a cyclic nucleotide-gated ion channel” (Nature Communications, 2020).
Where “and” joins values, the source holds several entries; their conditions need not be identical. Equal values may be shown once.

Columns and labels:
WT SthK = test: Stopped-flow Tl+ flux assay, WT SthK in proteo-liposomes; type: biochemical, Spirochaeta thermophila; set-up: key to averaged rate: normalized Tl+ influx rate at 2 ms (unitless, relative)
Text: (§1) In all cyclic nucleotide-gated channels the connection between the C-linker and the CNBD is formed by a helix-loop-helix motif called the siphon. […] This proline had not been previously implicated in prolyl isomerization in HCN channels or SthK. Due to steric restrictions and the lack of an amide-proton, prolines are only rarely found at the C-termini of α-helices[20],[21]. To test whether this unusual proline (Pro300, Fig. 1a, b) plays a role in channel activation, we employed a fluorescence-based stopped-flow assay to measure activation kinetics of a SthK mutant where the proline was substituted by an alanine.
(§2) All stopped-flow experiments were performed at 25 °C using a SX.20 sequential mixing fluorescence spectrophotometer (Applied Photophysics, Leatherhead, UK) controlled using ProDataSX as described before. In order to prepare liposomes for the Tl^+ flux assays 15 mg of DOPC:POPG:Cardiolipin (5:3:2, w/w/w) in chloroform were dried to a thin film in glass tubes under constant N2 flow and further dried under vacuum overnight. […] The sample was incubated at 21 °C under constant agitation for 3 h, the supernatant was transferred to a new glass tube and stored at 13 °C overnight. […] The liposome solution was diluted 5-times in sample buffer right before the experiments to ensure a good signal-to-noise ratio.
(§3) For the time course of activation in the presence of PPIases 2 µM of enzyme were added to the liposome solution and incubated for at least 10 min before the experiment yielding 1 µM of enzyme in the aging loop (after the first mixing event).
(§4) During one experiment, at least seven technical repeats were performed for each data point, every repeat was visually inspected for its quality, mixing artifacts were sorted out and the remaining repeats (typically 6–7 technical repeats) were analyzed separately in Matlab using a stretched exponential function (Eq. (2)) and the rate of Tl^+ influx into liposomes was calculated at 2 ms according to Eq. (3). 5000 data points were recorded over 1 s, however, to obtain the initial rate of Tl^+ influx only the first 100 ms were analyzed. The use of a stretched exponential function is necessary since the sizes of the liposomes vary and different amounts of channel proteins can be incorporated in different liposomes.2 Ft=F∞+F0−F∞⋅e^−t/τ^β 3 kt=β/τ⋅0.002s/τ^β−1 with Ft, F∞, F0 being the fluorescence at time t, the final fluorescence and the initial fluorescence, respectively. t is the time (in s), τ the time constant (in s) and β the stretched exponential factor. kt is the calculated rate (in s^−1) of Tl^+ influx at 2 ms.
(§5) The calculated rates kt were then averaged and the standard deviation (S.D.) was determined. Each experiment was independently repeated at least three times, the obtained rate constants were normalized, averaged and the S.D. was determined.
(§6) All further analysis was performed in GraFit. For the time course of channel activation, the rates were plotted as a function of the delay time in the first mixing step and fitted according to a double exponential.

SthK P300A = test: Stopped-flow Tl+ flux assay, SthK P300A in proteo-liposomes; type: biochemical, Spirochaeta thermophila; conditions: SthK P300A + SlyD; for averaged rate: mean of normalized rates; for normalized rate: single replicates
Text: as §1, §2, §3, §4, §5, §6

Abz-Ala-Leu-Pro-Phe-pNA = test: Peptide-based isomerization assay, PPIase activity, Leu substrate; type: biochemical
Protocol: (§7) To determine the activity of PPIases, peptides with either Leu or Glu preceding the Pro were used. Buffer and the desired concentration of PPIase were mixed in a QS quartz cuvette (Hellma Analytics) and incubated for 2 min under constant stirring. Peptide was added and the fluorescence increase was monitored.

Abz-Ala-Glu-Pro-Phe-pNA = test: Peptide-based isomerization assay, PPIase activity, Glu substrate; type: biochemical
Protocol: as §7

[1] = 1 µM PPIase, 100 µM cAMP, delay time 0.012 s
[2] = 1 µM PPIase, 100 µM cAMP, delay time 0.050 s
[3] = 1 µM PPIase, 100 µM cAMP, delay time 0.100 s
[4] = 1 µM PPIase, 100 µM cAMP, delay time 0.500 s
[5] = 1 µM PPIase, 100 µM cAMP, delay time 1.000 s
[6] = 1 µM PPIase, 100 µM cAMP, delay time 2.500 s
[7] = 1 µM PPIase, 100 µM cAMP, delay time 5.000 s
[8] = 1 µM PPIase, 100 µM cAMP, delay time 10.000 s
[9] = [PPIase] 10 pM, 12 ms with 100 µM cAMP
[10] = [PPIase] 100 pM, 12 ms with 100 µM cAMP
[11] = [PPIase] 1e-8 M, 12 ms with 100 µM cAMP
[12] = [PPIase] 1e-7 M, 12 ms with 100 µM cAMP
[13] = [PPIase] 1e-6 M, 12 ms with 100 µM cAMP
[14] = [PPIase] 1e-5 M, 12 ms with 100 µM cAMP

B1: SlyD: bacterial FKBP-type isomerase (UniProt P0A9K9, residues 1–165) (protein, UniProt P0A9K9 1-165, looked up, fragment)
chain: MKVAKDLVVSLAYQVRTEDGVLVDESPVSAPLDYLHGHGSLISGLETALEGHEVGDKFDVAVGANDAYGQYDENLVQRVPKDVFMGVDELQVGMRFLAETDQGPVPVEITAVEDDHVVVDGNHMLAGQNLKFNVEVVAIREATEEELAHGHVHGAHDHHHDHDHD
With B1 the averaged rate (WT SthK; [1]) was 1.130, the normalized rate (WT SthK; [1]) was 0.993 and 1.357 and 1.239 and 1.025 and 1.202 and 0.960 and the averaged rate (WT SthK; [2]) was 1.035. For the same molecule, the normalized rate (WT SthK; [2]) was 1.008 and 0.974 and 1.215 and 1.144 and 1.115 and 0.926 and 0.860, the averaged rate (WT SthK; [3]) was 0.965 and the normalized rate (WT SthK; [3]) was 0.986 and 0.930 and 0.972 and 1.038 and 1.181 and 0.964 and 0.683. The normalized rate (WT SthK; 1 µM PPIase, 100 µM cAMP, delay time 0.250 s) was 0.815 and 0.934 and 1.134 and 1.296 and 1.074 and 0.872, the averaged rate (WT SthK; [4]) was 0.978 and the normalized rate (WT SthK; [4]) was 0.911 and 0.879 and 0.973 and 1.305 and 0.757 and 1.021 and 1.000. For the same molecule, the averaged rate (WT SthK; [5]) was 0.917, the normalized rate (WT SthK; [5]) was 0.846 and 1.000 and 0.945 and 0.918 and 0.791 and 0.664 and the averaged rate (WT SthK; [6]) was 0.942. For the same molecule, the normalized rate (WT SthK; [6]) was 0.974 and 0.975 and 0.900 and 0.886 and 0.933 and 1.068, the averaged rate (WT SthK; [7]) was 1.014 and the normalized rate (WT SthK; [7]) was 0.948 and 0.912 and 0.942 and 1.000 and 1.421 and 0.879. The averaged rate (WT SthK; [8]) was 0.922, the normalized rate (WT SthK; [8]) was 1.000 and 0.963 and 0.916 and 0.966 and 0.900 and 0.827 and 0.883 and the “effect on SthK activation (slow activation phase)” value (WT SthK; 1 µM protein, 100 µM cAMP) was “abolished”. The EC50 (WT SthK; PPIase concentration dependence of normalized Tl+ flux rate, 12 ms incubation with 100 µM cAMP) was ~30 nM, the averaged rate (WT SthK; [9]) was 0.622 and the normalized rate (WT SthK; [9]) was 0.592 and 0.562 and 0.636 and 0.697. For the same molecule, the averaged rate (WT SthK; [10]) was 0.685, the normalized rate (WT SthK; [10]) was 0.710 and 0.760 and 0.585 and the normalized rate (WT SthK; [PPIase] 1e-9 M, 12 ms with 100 µM cAMP) was 0.755 and 0.566 and 0.775 and 0.750. The averaged rate (WT SthK; [11]) was 0.814, the normalized rate (WT SthK; [11]) was 0.965 and 0.565 and 0.822 and 0.905 and the averaged rate (WT SthK; [12]) was 0.961. For the same molecule, the normalized rate (WT SthK; [12]) was 1.083 and 0.844 and 0.962 and 0.956, the averaged rate (WT SthK; [13]) was 0.999 and the normalized rate (WT SthK; [13]) was 1.000 and 0.992 and 1.006. The averaged rate (WT SthK; [14]) was 1.000, the normalized rate (WT SthK; [14]) was 1.000 and the averaged rate (SthK P300A; delay time 0.010 s) was 1.007. The normalized rate (SthK P300A; delay time 0.010 s) was 1.011 and 0.947, the averaged rate (SthK P300A; delay time 0.025 s) was 0.973 and the normalized rate (SthK P300A; delay time 0.025 s) was 0.800. For the same molecule, the averaged rate (SthK P300A; delay time 0.050 s) was 0.981, the normalized rate (SthK P300A; delay time 0.050 s) was 0.892 and 1.105 and the averaged rate (SthK P300A; delay time 0.100 s) was 0.894. The normalized rate (SthK P300A; delay time 0.100 s) was 1.000 and 0.795 and 0.887, the averaged rate (SthK P300A; delay time 0.250 s) was 1.060 and the normalized rate (SthK P300A; delay time 0.250 s) was 1.026 and 1.272 and 0.881. The averaged rate (SthK P300A; delay time 0.500 s) was 1.153, the normalized rate (SthK P300A; delay time 0.500 s) was 1.146 and 1.160 and the averaged rate (SthK P300A; delay time 1.000 s) was 1.068. The normalized rate (SthK P300A; delay time 1.000 s) was 1.172, the averaged rate (SthK P300A; delay time 2.500 s) was 1.001 and the normalized rate (SthK P300A; delay time 2.500 s) was 1.067 and 1.000. The averaged rate (SthK P300A; delay time 5.000 s) was 0.966, the normalized rate (SthK P300A; delay time 5.000 s) was 1.000 and 0.922 and the averaged rate (SthK P300A; delay time 10.000 s) was 0.867. For the same molecule, the normalized rate (SthK P300A; delay time 10.000 s) was 0.930 and 0.866 and 0.804, the apparent rate (Abz-Ala-Leu-Pro-Phe-pNA; KCl, LPF substrate, 2 nM enzyme) was 0.041 s⁻¹ and 0.044 s⁻¹ and 0.045 s⁻¹ and the apparent rate (Abz-Ala-Leu-Pro-Phe-pNA; KCl, LPF substrate, 5 nM enzyme) was 0.051 s⁻¹ and 0.061 s⁻¹ and 0.048 s⁻¹. The apparent rate (Abz-Ala-Leu-Pro-Phe-pNA; KCl, LPF substrate, 10 nM enzyme) was 0.068 s⁻¹ and 0.054 s⁻¹ and 0.069 s⁻¹, the apparent rate (Abz-Ala-Leu-Pro-Phe-pNA; KCl, LPF substrate, 15 nM enzyme) was 0.053 s⁻¹ and 0.072 s⁻¹ and 0.063 s⁻¹ and the apparent rate (Abz-Ala-Leu-Pro-Phe-pNA; KNO3, LPF substrate, 2 nM enzyme) was 0.049 s⁻¹ and 0.043 s⁻¹ and 0.048 s⁻¹. The apparent rate (Abz-Ala-Leu-Pro-Phe-pNA; KNO3, LPF substrate, 5 nM enzyme) was 0.062 s⁻¹ and 0.056 s⁻¹ and 0.074 s⁻¹, the apparent rate (Abz-Ala-Leu-Pro-Phe-pNA; KNO3, LPF substrate, 10 nM enzyme) was 0.072 s⁻¹ and 0.045 s⁻¹ and the apparent rate (Abz-Ala-Leu-Pro-Phe-pNA; KNO3, LPF substrate, 15 nM enzyme) was 0.062 s⁻¹ and 0.069 s⁻¹ and 0.077 s⁻¹. The apparent rate (Abz-Ala-Glu-Pro-Phe-pNA; KCl, EPF substrate, 2 nM enzyme) was 0.026 s⁻¹ and 0.024 s⁻¹, the apparent rate (Abz-Ala-Glu-Pro-Phe-pNA; KCl, EPF substrate, 5 nM enzyme) was 0.025 s⁻¹ and 0.026 s⁻¹ and the apparent rate (Abz-Ala-Glu-Pro-Phe-pNA; KCl, EPF substrate, 10 nM enzyme) was 0.024 s⁻¹ and 0.025 s⁻¹. For the same molecule, the apparent rate (Abz-Ala-Glu-Pro-Phe-pNA; KCl, EPF substrate, 15 nM enzyme) was 0.025 s⁻¹ and 0.024 s⁻¹, the apparent rate (Abz-Ala-Glu-Pro-Phe-pNA; KNO3, EPF substrate, 2 nM enzyme) was 0.023 s⁻¹ and 0.027 s⁻¹ and the apparent rate (Abz-Ala-Glu-Pro-Phe-pNA; KNO3, EPF substrate, 5 nM enzyme) was 0.024 s⁻¹ and 0.029 s⁻¹ and 0.027 s⁻¹. The apparent rate (Abz-Ala-Glu-Pro-Phe-pNA; KNO3, EPF substrate, 10 nM enzyme) was 0.028 s⁻¹ and 0.024 s⁻¹ and 0.026 s⁻¹ and the apparent rate (Abz-Ala-Glu-Pro-Phe-pNA; KNO3, EPF substrate, 15 nM enzyme) was 0.024 s⁻¹ and 0.027 s⁻¹.
